# Measurements published in patent US20230242646A1.
# Experiments:
# [1] = target: membrane-bound full-length human CD89 on HEK293F cells (human) (UniProt P24071); assay: FACS HEK293F-huCD89; non-aggregated serum IgA
# [2] = target: membrane-bound full-length human CD89 on HEK293F cells (human) (UniProt P24071); assay: FACS HEK293F-huCD89; heat-aggregated serum IgA
# [3] = target: membrane-bound full-length human CD89 on HEK293F cells (human) (UniProt P24071); assay: FACS HEK293F-huCD89, 10 ug/mL; competitor PE-A3
# [4] = target: membrane-bound full-length human CD89 on HEK293F cells (human) (UniProt P24071); assay: FACS HEK293F-huCD89, 10 ug/mL; competitor PE-A59
# [5] = target: membrane-bound full-length human CD89 on HEK293F cells (human) (UniProt P24071); assay: FACS HEK293F-huCD89, 10 ug/mL; competitor PE-MIP8a
# [6] = target: membrane-bound full-length human CD89 on HEK293F cells (human) (UniProt P24071); assay: FACS HEK293F-huCD89, titrated Ab; non-aggregated serum IgA
# [7] = target: membrane-bound full-length human CD89 on HEK293F cells (human) (UniProt P24071); assay: FACS HEK293F-huCD89, titrated Ab; heat-aggregated serum IgA
# [8] = target: membrane-bound full-length human CD89 on HEK293F cells (human) (UniProt P24071); assay: FACS, unlabelled antibody before A3-PE on HEK293F-huCD89
# [9] = target: membrane-bound full-length human CD89 on HEK293F cells (human) (UniProt P24071); assay: FACS HEK293F-huCD89, 10 ug/mL; heat-aggregated serum IgA (similar with non-aggregated)
# [10] = target: membrane-bound full-length human CD89 on HEK293F cells (human) (UniProt P24071); assay: FACS, antibody before non-aggregated serum IgA on HEK293F-huCD89; IgA detected
# [11] = target: membrane-bound full-length human CD89 on HEK293F cells (human) (UniProt P24071); assay: FACS, antibody before heat-aggregated serum IgA on HEK293F-huCD89; IgA detected
# [12] = target: membrane-bound full-length human CD89 on HEK293F cells (human) (UniProt P24071); assay: FACS, antibody before non-aggregated serum IgA on HEK293F-huCD89; IgA detected; remark: listed apart in the source
# [13] = target: membrane-bound full-length human CD89 on HEK293F cells (human) (UniProt P24071); assay: FACS, antibody before heat-aggregated serum IgA on HEK293F-huCD89; IgA detected; remark: listed apart in the source
# [14] = target: membrane-bound full-length human CD89 on HEK293F cells (human) (UniProt P24071); assay: FACS, unlabelled antibody before A59-PE on HEK293F-huCD89
# [15] = target: membrane human CD89 on ex vivo primary human neutrophilic granulocytes or monocytic U937 cells (human) (UniProt P24071)
# [16] = target: membrane-bound full-length human CD89 on HEK293F cells (human) (UniProt P24071); assay: FACS on HEK293F-huCD89
# [17] = target: recombinant C-terminal polyhistidine-tagged human (extracellular) CD89 (Sino Biological) (human) (UniProt P24071); assay: ELISA on coated rhuCD89
# [18] = target: membrane-bound full-length human CD89 on HEK293F cells (human) (UniProt P24071); assay: FACS, unlabelled antibody before MIP8a-PE on HEK293F-huCD89
# [19] = target: membrane-bound full-length human CD89 on HEK293F cells (human) (UniProt P24071); assay: FACS, antibody before serum IgA on HEK293F-huCD89; IgA detected
# [20] = target: recombinant C-terminal polyhistidine-tagged human (extracellular) CD89 (Sino Biological) (human) (UniProt P24071); assay: ELISA, antibody before serum IgA on coated rhuCD89; IgA detected
# [21] = target: membrane-bound full-length human CD89 on HEK293F cells (human) (UniProt P24071); assay: FACS, antibody before secretory IgA on HEK293F-huCD89; IgA detected
maximum inhibition of IgA binding [1] [%],maximum inhibition of IgA binding [2] [%],% blocking of PE-A3 binding [3] [%],% blocking of PE-A59 binding [4] [%],% blocking of PE-MIP8a binding [5] [%],maximum inhibition of IgA binding [6] [%],maximum inhibition of IgA binding [7] [%],IC50 (read off the curve) [8] [µg/mL],% blocking of IgA binding [9] [%],IC50 (read off the curve) [10] [µg/mL],IC50 (read off the curve) [11] [µg/mL],IC50 (read off the curve) [12] [µg/mL],IC50 (read off the curve) [13] [µg/mL],Substance,further results
60,60,> 90,> 90,< 25,60,60,0.4,60,0.4,0.4,0.8,0.7,mouse anti-human CD89 antibody clone A3 (Santa Cruz Biotechnology),
60,60,> 90,> 90,< 25,60,60,,60,,,1,1,mouse anti-human CD89 antibody clone A59 (BD Biosciences),IC50 (read off the curve) [14]: 0.6 µg/mL
,,55,50,> 90,,,0.2,,0.2,0.2,0.7,0.7,mouse anti-human CD89 antibody clone MIP8a (BioRad),"IC50 (read off the bars), binding of granulocytes to plate-bound serum IgA [Donor 3] [15]: 0.6 µg/mL; EC50 (read off the curve) [16]: 0.2 µg/mL; EC50 (read off the curve) [17]: 0.02 µg/mL; IC50 (read off the curve) [18]: 0.3 µg/mL; IC50 (read off the curve) [19]: 0.2 µg/mL; IC50 (read off the curve) [20]: 0.07 µg/mL; IC50 (read off the curve) [21]: 0.4 µg/mL"
